Oligonucleotides are written 5' to 3', each unit as a sugar letter and its base; * is a phosphorothioate linkage, no mark a phosphodiester; rarer units and linkages stand in square brackets, end groups in braces. Plain capitals give the bases only. m = 2'-O-methyl; r = 2'-OH (RNA)
Experiments:
[1] = tested on: B2M, CD3, MHC II; assay: Flow cytometry of antigen negative T cells (B2M, CD3, MHC II) after BC22n or Cas9 editing, Example 16A; type: cell-based, human
Description: Cells were subsequently washed, processed on a Cytoflex instrument (Beckman Coulter) and analyzed using the FlowJo software package. T cells were gated based on size, shape, viability, and antigen expression.

[2] = tested on: B2M, TRAC, TRBC1/2, CIITA; assay: NGS editing profile of T cells with BC22n or Cas9 mRNA, single or four guides, LNP titration, Example 16A; type: cell-based, human; conditions: LNP;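 note: activated T cells exposed to LNPs 72 h after activation, kept at 37 °C, harvested on day 10 post activation, editing measured by NGS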
Protocol: Cells were expanded in T cell basal media for 72 hours prior to LNP transfection.
LNPs were mixed to fixed total mRNA weight ratios of 6:3:2 for editor mRNA, guide RNA, and UGI mRNA respectively as described in Table 12. […] LNP mixtures were incubated for 5 minutes at 37° C. in T cell basal media substituting 6% cynomolgus monkey serum (Bioreclamation IVT, Cat. CYN220760) for fetal bovine serum.
T cells were incubated at 37° C. with 5% CO2 for the duration of the experiment.
In total, T cells were exposed to 6 different LNPs simultaneously (editor mRNA, UGI mRNA, 4 guides).

[3] = multiple guide delivery (four guides simultaneously), locus of the guide assayed, editor BC22n, total RNA 8.6 ng
[4] = multiple guide delivery (four guides simultaneously), locus of the guide assayed, editor BC22n, total RNA 17.2 ng
[5] = multiple guide delivery (four guides simultaneously), locus of the guide assayed, editor BC22n, total RNA 34.4 ng
[6] = multiple guide delivery (four guides simultaneously), locus of the guide assayed, editor BC22n, total RNA 68.8 ng
[7] = multiple guide delivery (four guides simultaneously), locus of the guide assayed, editor BC22n, total RNA 137.5 ng
[8] = multiple guide delivery (four guides simultaneously), locus of the guide assayed, editor BC22n, total RNA 275.0 ng
[9] = multiple guide delivery (four guides simultaneously), locus of the guide assayed, editor BC22n, total RNA 550.0 ng
[10] = multiple guide delivery (four guides simultaneously), locus of the guide assayed, editor Cas9, total RNA 8.6 ng
[11] = multiple guide delivery (four guides simultaneously), locus of the guide assayed, editor Cas9, total RNA 17.2 ng
[12] = multiple guide delivery (four guides simultaneously), locus of the guide assayed, editor Cas9, total RNA 34.4 ng
[13] = multiple guide delivery (four guides simultaneously), locus of the guide assayed, editor Cas9, total RNA 68.8 ng
[14] = multiple guide delivery (four guides simultaneously), locus of the guide assayed, editor Cas9, total RNA 137.5 ng
[15] = multiple guide delivery (four guides simultaneously), locus of the guide assayed, editor Cas9, total RNA 275.0 ng
[16] = multiple guide delivery (four guides simultaneously), locus of the guide assayed, editor Cas9, total RNA 550.0 ng
[17] = single guide delivery, editor BC22n, total RNA 8.6 ng
[18] = single guide delivery, editor BC22n, total RNA 17.2 ng
[19] = single guide delivery, editor BC22n, total RNA 34.4 ng
[20] = single guide delivery, editor BC22n, total RNA 68.8 ng
[21] = single guide delivery, editor BC22n, total RNA 137.5 ng
[22] = single guide delivery, editor BC22n, total RNA 275.0 ng
[23] = single guide delivery, editor BC22n, total RNA 550.0 ng
[24] = single guide delivery, editor Cas9, total RNA 8.6 ng
[25] = single guide delivery, editor Cas9, total RNA 17.2 ng
[26] = single guide delivery, editor Cas9, total RNA 34.4 ng
[27] = single guide delivery, editor Cas9, total RNA 68.8 ng
[28] = single guide delivery, editor Cas9, total RNA 137.5 ng
[29] = single guide delivery, editor Cas9, total RNA 275.0 ng

B1: G016206: guide targeting TRBC1/2 (SEQ ID NO: 713) (nucleic acid)
guide: mC*mG*mC*rUrGrUrCrArArGrUrCrCrArGrUrUrCrUrArGrUrUrUrUrArGrAmGmCmUmAmGmAmAmAmUmAmGmCrArArGrUrUrArArArArUrArArGrGrCrUrArGrUrCrCrGrUrUrArUrCrAmAmCmUmUmGmAmAmAmAmAmGmUmGmGmCmAmCmCmGmAmGmUmCmGmGmUmGmCmU*mU*mU*mU
Question: For B1, which “percent cells negative for antigen, CD3 neg, Mean %” value (shortened to “percent cells negative … Mean %”) ([1]; editor BC22n, total RNA 8.6 ng) is on record?
Answer: 32.6%

Question: And the “percent cells negative … Mean %” value ([1]; editor BC22n, total RNA 17.2 ng)?
Answer: 53.4%

Question: What about the “percent cells negative … Mean %” value ([1]; editor BC22n, total RNA 34.4 ng) of the same molecule?
Answer: 71.9%

Question: And the “percent cells negative … Mean %” value ([1]; editor BC22n, total RNA 68.8 ng)?
Answer: 82.9%

Question: What about the “percent cells negative … Mean %” value ([1]; editor BC22n, total RNA 137.5 ng) of the same molecule?
Answer: 90.4%

Question: What about the “percent cells negative … Mean %” value ([1]; editor BC22n, total RNA 275.0 ng) of the same molecule?
Answer: 96.0%

Question: And the “percent cells negative … Mean %” value ([1]; editor BC22n, total RNA 550.0 ng)?
Answer: 97.9%

Question: And the “percent cells negative … Mean %” value ([1]; editor Cas9, total RNA 8.6 ng)?
Answer: 7.9%

Question: And the “percent cells negative … Mean %” value ([1]; editor Cas9, total RNA 17.2 ng)?
Answer: 16.1%

Question: What about the “percent cells negative … Mean %” value ([1]; editor Cas9, total RNA 34.4 ng) of the same molecule?
Answer: 27.0%

Question: What about the “percent cells negative … Mean %” value ([1]; editor Cas9, total RNA 68.8 ng) of the same molecule?
Answer: 40.6%

Question: What about the “percent cells negative … Mean %” value ([1]; editor Cas9, total RNA 137.5 ng) of the same molecule?
Answer: 59.4%

Question: And the “percent cells negative … Mean %” value ([1]; editor Cas9, total RNA 275.0 ng)?
Answer: 77.3%

Question: What about the “percent cells negative … Mean %” value ([1]; editor Cas9, total RNA 550.0 ng) of the same molecule?
Answer: 86.6%

Question: And the C-to-A/G % mean [2, 3]?
Answer: 2.6%

Question: And the C-to-T % mean [2, 3]?
Answer: 11.6%

Question: And the Indel % mean [2, 3]?
Answer: 2.8%

Question: And the C-to-A/G % mean [2, 4]?
Answer: 3.6%

Question: And the C-to-T % mean [2, 4]?
Answer: 23.4%

Question: What about the Indel % mean [2, 4] of the same molecule?
Answer: 2.6%

Question: What about the C-to-A/G % mean [2, 5] of the same molecule?
Answer: 3.7%

Question: And the C-to-T % mean [2, 5]?
Answer: 38.5%

Question: What about the Indel % mean [2, 5] of the same molecule?
Answer: 2.9%

Question: What about the C-to-A/G % mean [2, 6] of the same molecule?
Answer: 2.3%

Question: What about the C-to-T % mean [2, 6] of the same molecule?
Answer: 55.6%

Question: What about the Indel % mean [2, 6] of the same molecule?
Answer: 2.4%

Question: What about the C-to-A/G % mean [2, 7] of the same molecule?
Answer: 1.8%

Question: And the C-to-T % mean [2, 7]?
Answer: 72.4%

Question: And the Indel % mean [2, 7]?
Answer: 1.7%

Question: What about the C-to-A/G % mean [2, 8] of the same molecule?
Answer: 1.9%

Question: And the C-to-T % mean [2, 8]?
Answer: 85.1%

Question: What about the Indel % mean [2, 8] of the same molecule?
Answer: 1.7%

Question: What about the C-to-A/G % mean [2, 9] of the same molecule?
Answer: 2.2%

Question: And the C-to-T % mean [2, 9]?
Answer: 89.8%

Question: What about the Indel % mean [2, 9] of the same molecule?
Answer: 0.9%

Question: What about the C-to-A/G % mean [2, 10] of the same molecule?
Answer: 0.7%

Question: And the C-to-T % mean [2, 10]?
Answer: 0.2%

Question: What about the Indel % mean [2, 10] of the same molecule?
Answer: 2.3%

Question: And the C-to-A/G % mean [2, 11]?
Answer: 0.7%

Question: What about the C-to-T % mean [2, 11] of the same molecule?
Answer: 0.3%

Question: What about the Indel % mean [2, 11] of the same molecule?
Answer: 4.2%

Question: And the C-to-A/G % mean [2, 12]?
Answer: 0.5%

Question: What about the C-to-T % mean [2, 12] of the same molecule?
Answer: 0.1%

Question: What about the Indel % mean [2, 12] of the same molecule?
Answer: 6.6%

Question: And the C-to-A/G % mean [2, 13]?
Answer: 0.5%

Question: And the C-to-T % mean [2, 13]?
Answer: 0.4%

Question: What about the Indel % mean [2, 13] of the same molecule?
Answer: 12.3%

Question: What about the C-to-A/G % mean [2, 14] of the same molecule?
Answer: 0.5%

Question: And the C-to-T % mean [2, 14]?
Answer: 0.2%

Question: And the Indel % mean [2, 14]?
Answer: 17.8%

Question: And the C-to-A/G % mean [2, 15]?
Answer: 0.5%

Question: And the C-to-T % mean [2, 15]?
Answer: 0.1%

Question: What about the Indel % mean [2, 15] of the same molecule?
Answer: 33.0%

Question: What about the C-to-A/G % mean [2, 16] of the same molecule?
Answer: 0.3%

Question: What about the C-to-T % mean [2, 16] of the same molecule?
Answer: 0.3%

Question: What about the Indel % mean [2, 16] of the same molecule?
Answer: 43.3%

Question: And the C-to-A/G % mean [2, 17]?
Answer: 6.1%

Question: What about the C-to-T % mean [2, 17] of the same molecule?
Answer: 23.7%

Question: And the Indel % mean [2, 17]?
Answer: 6.1%

Question: And the C-to-A/G % mean [2, 18]?
Answer: 6.8%

Question: What about the C-to-T % mean [2, 18] of the same molecule?
Answer: 42.4%

Question: And the Indel % mean [2, 18]?
Answer: 6.8%

Question: What about the C-to-A/G % mean [2, 19] of the same molecule?
Answer: 5.7%

Question: What about the C-to-T % mean [2, 19] of the same molecule?
Answer: 60.1%

Question: And the Indel % mean [2, 19]?
Answer: 5.9%

Question: What about the C-to-A/G % mean [2, 20] of the same molecule?
Answer: 4.3%

Question: And the C-to-T % mean [2, 20]?
Answer: 73.2%

Question: What about the Indel % mean [2, 20] of the same molecule?
Answer: 4.7%

Question: And the C-to-A/G % mean [2, 21]?
Answer: 3.6%

Question: What about the C-to-T % mean [2, 21] of the same molecule?
Answer: 81.7%

Question: And the Indel % mean [2, 21]?
Answer: 3.7%

Question: And the C-to-A/G % mean [2, 22]?
Answer: 2.3%

Question: What about the C-to-T % mean [2, 22] of the same molecule?
Answer: 91.0%

Question: And the Indel % mean [2, 22]?
Answer: 2.8%

Question: And the C-to-A/G % mean [2, 23]?
Answer: 2.0%

Question: And the C-to-T % mean [2, 23]?
Answer: 93.6%

Question: What about the Indel % mean [2, 23] of the same molecule?
Answer: 1.7%

Question: And the C-to-A/G % mean [2, 24]?
Answer: 0.5%

Question: What about the C-to-T % mean [2, 24] of the same molecule?
Answer: 0.3%

Question: What about the Indel % mean [2, 24] of the same molecule?
Answer: 8.1%

Question: What about the C-to-A/G % mean [2, 25] of the same molecule?
Answer: 0.7%

Question: What about the C-to-T % mean [2, 25] of the same molecule?
Answer: 0.3%

Question: What about the Indel % mean [2, 25] of the same molecule?
Answer: 14.9%

Question: What about the C-to-A/G % mean [2, 26] of the same molecule?
Answer: 0.8%

Question: And the C-to-T % mean [2, 26]?
Answer: 0.2%

Question: And the Indel % mean [2, 26]?
Answer: 24.1%

Question: And the C-to-A/G % mean [2, 27]?
Answer: 0.4%

Question: And the C-to-T % mean [2, 27]?
Answer: 0.2%

Question: And the Indel % mean [2, 27]?
Answer: 35.9%

Question: What about the C-to-A/G % mean [2, 28] of the same molecule?
Answer: 0.5%

Question: What about the C-to-T % mean [2, 28] of the same molecule?
Answer: 0.2%

Question: What about the Indel % mean [2, 28] of the same molecule?
Answer: 48.6%

Question: And the C-to-A/G % mean [2, 29]?
Answer: 0.4%

Question: What about the C-to-T % mean [2, 29] of the same molecule?
Answer: 0.1%

Question: What about the Indel % mean [2, 29] of the same molecule?
Answer: 63.8%

— patent US20230183753A1, “Methods of in Vitro Cell Delivery” (Intellia Therapeutics, Inc., priority 2020, published 2023)
